What all share (test): nanopore single-molecule
Data set [1] deals with HCoV-229E nucleocapsid protein (HCoV-229E). As to conditions: 20 nM protein, 200 pM probe; SPR: DPBS running buffer, temperature not stated; nanopore: 2 M LiCl, 5 mM MgCl2, 10 mM Tris-HCl, 1 mM EDTA, pH 8, 300 mV, about 2 h incubation.
Data set [2] concerns the target SARS-CoV-2 nucleocapsid protein (SARS-CoV-2) (UniProt P0DTC9).
For data set [3], the system named is HCoV-OC43 nucleocapsid protein (HCoV-OC43). The conditions noted are these: 20 nM protein, 200 pM probe; SPR: DPBS running buffer, temperature not stated; nanopore: 2 M LiCl, 5 mM MgCl2, 10 mM Tris-HCl, 1 mM EDTA, pH 8, 300 mV, about 2 h incubation.
Data set [4] addresses SARS-CoV-2 spike protein S1 region (SARS-CoV-2) (UniProt P0DTC2).
The test system of data set [5] is HCoV-OC43 spike protein (HCoV-OC43). As to conditions: 200 nM protein, 200 pM probe; SPR: DPBS running buffer, temperature not stated; nanopore: 2 M LiCl, 5 mM MgCl2, 10 mM Tris-HCl, 1 mM EDTA, pH 8, 300 mV, about 2 h incubation.
The subject of data set [6] is HCoV-NL63 spike protein (HCoV-NL63). The conditions noted are these: 200 nM protein, 200 pM probe; SPR: DPBS running buffer, temperature not stated; nanopore: 2 M LiCl, 5 mM MgCl2, 10 mM Tris-HCl, 1 mM EDTA, pH 8, 300 mV, about 2 h incubation.
Data set [7] deals with spike protein from lysed SARS-CoV-2 pseudovirus (SARS-CoV-2).

With “NBA centre-labelled 10 kbp molecular probe”, the figures for the binding signal (% bound events) in data set [1], in data set [2] and in data set [3] were 0.31, 5.71 and 0.83, respectively.
For the substance SBA end-labelled 10 kbp molecular probe, the binding signal (% bound events) in data set [4] turned out to be 9.82; in data set [5] it was 0.5; in data set [6], 0.02; in data set [7] it was 0.6.

These data come from PMC10646045.
